Laboratory results as given in article PMC2896673 (Journal of Biomedicine and Biotechnology, 2010).

Biological target: human procollagen V proα2(V) chain, produced in HEK-293 cells (human, UniProt P05997 27-1499)
Assay: ion-exchange chromatography (DEAE-cellulose) with Western blot of the fractions; supernatant of medium of co-transfected HEK-293 cells (clone C22) after dialysis against 50 mM Tris-HCl pH 8.6; linear 0–0.6 M NaCl gradient; fractions double probed with mAb 18G5 and polyclonal antibodies to collagen V
Conditions: partners not purified

Chain of human procollagen V proα2(V) chain, produced in HEK-293 cells (P05997 27-1499): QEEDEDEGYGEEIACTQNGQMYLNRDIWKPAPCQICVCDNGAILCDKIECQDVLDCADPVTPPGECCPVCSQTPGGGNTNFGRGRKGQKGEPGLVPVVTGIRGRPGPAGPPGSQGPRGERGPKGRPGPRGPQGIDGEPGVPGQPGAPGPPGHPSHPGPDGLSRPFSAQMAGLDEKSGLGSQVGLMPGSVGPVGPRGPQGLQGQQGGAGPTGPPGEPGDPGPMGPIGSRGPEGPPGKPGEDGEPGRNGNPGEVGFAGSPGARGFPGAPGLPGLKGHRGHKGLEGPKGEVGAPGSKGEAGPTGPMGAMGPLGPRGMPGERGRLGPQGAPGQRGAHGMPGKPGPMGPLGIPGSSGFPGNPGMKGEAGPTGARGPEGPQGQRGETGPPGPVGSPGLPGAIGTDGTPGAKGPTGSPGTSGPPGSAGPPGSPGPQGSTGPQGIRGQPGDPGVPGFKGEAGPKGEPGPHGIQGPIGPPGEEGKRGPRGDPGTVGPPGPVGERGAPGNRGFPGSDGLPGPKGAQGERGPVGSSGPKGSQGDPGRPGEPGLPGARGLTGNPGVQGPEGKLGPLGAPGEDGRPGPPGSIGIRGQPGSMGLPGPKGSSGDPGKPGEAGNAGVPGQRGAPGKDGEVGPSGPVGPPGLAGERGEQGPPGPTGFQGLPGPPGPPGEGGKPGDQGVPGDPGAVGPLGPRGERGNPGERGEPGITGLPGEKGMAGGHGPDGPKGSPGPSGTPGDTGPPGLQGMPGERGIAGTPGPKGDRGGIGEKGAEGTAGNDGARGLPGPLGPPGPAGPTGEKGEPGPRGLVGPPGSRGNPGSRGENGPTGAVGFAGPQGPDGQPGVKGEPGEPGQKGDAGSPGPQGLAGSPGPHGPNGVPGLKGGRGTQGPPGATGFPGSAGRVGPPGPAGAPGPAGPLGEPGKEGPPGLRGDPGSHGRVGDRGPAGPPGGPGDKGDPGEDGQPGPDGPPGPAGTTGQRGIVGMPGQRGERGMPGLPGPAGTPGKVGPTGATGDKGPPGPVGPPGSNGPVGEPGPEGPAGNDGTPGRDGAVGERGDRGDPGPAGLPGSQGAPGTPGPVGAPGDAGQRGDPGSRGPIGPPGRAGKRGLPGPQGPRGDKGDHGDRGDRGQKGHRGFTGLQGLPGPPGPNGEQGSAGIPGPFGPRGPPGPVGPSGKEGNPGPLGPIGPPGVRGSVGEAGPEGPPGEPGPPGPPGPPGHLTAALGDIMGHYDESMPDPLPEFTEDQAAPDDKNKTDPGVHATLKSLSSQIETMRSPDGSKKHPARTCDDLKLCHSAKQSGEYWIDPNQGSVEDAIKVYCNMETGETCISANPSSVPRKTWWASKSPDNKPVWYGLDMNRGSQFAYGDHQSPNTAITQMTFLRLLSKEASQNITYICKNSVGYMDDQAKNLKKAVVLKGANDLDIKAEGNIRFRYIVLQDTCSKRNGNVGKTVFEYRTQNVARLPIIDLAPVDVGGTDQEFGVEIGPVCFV

B1: human procollagen V proα1(V) chain, produced in HEK-293 cells (natural protein, UniProt P20908 38-1838, looked up)
chain: QPADLLKVLDFHNLPDGITKTTGFCATRRSSKGPDVAYRVTKDAQLSAPTKQLYPASAFPEDFSILTTVKAKKGSQAFLVSIYNEQGIQQIGLELGRSPVFLYEDHTGKPGPEDYPLFRGINLSDGKWHRIALSVHKKNVTLILDCKKKTTKFLDRSDHPMIDINGIIVFGTRILDEEVFEGDIQQLLFVSDHRAAYDYCEHYSPDCDTAVPDTPQSQDPNPDEYYTEGDGEGETYYYEYPYYEDPEDLGKEPTPSKKPVEAAKETTEVPEELTPTPTEAAPMPETSEGAGKEEDVGIGDYDYVPSEDYYTPSPYDDLTYGEGEENPDQPTDPGAGAEIPTSTADTSNSSNPAPPPGEGADDLEGEFTEETIRNLDENYYDPYYDPTSSPSEIGPGMPANQDTIYEGIGGPRGEKGQKGEPAIIEPGMLIEGPPGPEGPAGLPGPPGTMGPTGQVGDPGERGPPGRPGLPGADGLPGPPGTMLMLPFRFGGGGDAGSKGPMVSAQESQAQAILQQARLALRGPAGPMGLTGRPGPVGPPGSGGLKGEPGDVGPQGPRGVQGPPGPAGKPGRRGRAGSDGARGMPGQTGPKGDRGFDGLAGLPGEKGHRGDPGPSGPPGPPGDDGERGDDGEVGPRGLPGEPGPRGLLGPKGPPGPPGPPGVTGMDGQPGPKGNVGPQGEPGPPGQQGNPGAQGLPGPQGAIGPPGEKGPLGKPGLPGMPGADGPPGHPGKEGPPGEKGGQGPPGPQGPIGYPGPRGVKGADGIRGLKGTKGEKGEDGFPGFKGDMGIKGDRGEIGPPGPRGEDGPEGPKGRGGPNGDPGPLGPPGEKGKLGVPGLPGYPGRQGPKGSIGFPGFPGANGEKGGRGTPGKPGPRGQRGPTGPRGERGPRGITGKPGPKGNSGGDGPAGPPGERGPNGPQGPTGFPGPKGPPGPPGKDGLPGHPGQRGETGFQGKTGPPGPPGVVGPQGPTGETGPMGERGHPGPPGPPGEQGLPGLAGKEGTKGDPGPAGLPGKDGPPGLRGFPGDRGLPGPVGALGLKGNEGPPGPPGPAGSPGERGPAGAAGPIGIPGRPGPQGPPGPAGEKGAPGEKGPQGPAGRDGLQGPVGLPGPAGPVGPPGEDGDKGEIGEPGQKGSKGDKGEQGPPGPTGPQGPIGQPGPSGADGEPGPRGQQGLFGQKGDEGPRGFPGPPGPVGLQGLPGPPGEKGETGDVGQMGPPGPPGPRGPSGAPGADGPQGPPGGIGNPGAVGEKGEPGEAGEPGLPGEGGPPGPKGERGEKGESGPSGAAGPPGPKGPPGDDGPKGSPGPVGFPGDPGPPGEPGPAGQDGPPGDKGDDGEPGQTGSPGPTGEPGPSGPPGKRGPPGPAGPEGRQGEKGAKGEAGLEGPPGKTGPIGPQGAPGKPGPDGLRGIPGPVGEQGLPGSPGPDGPPGPMGPPGLPGLKGDSGPKGEKGHPGLIGLIGPPGEQGEKGDRGLPGPQGSSGPKGEQGITGPSGPIGPPGPPGLPGPPGPKGAKGSSGPTGPKGEAGHPGPPGPPGPPGEVIQPLPIQASRTRRNIDASQLLDDGNGENYVDYADGMEEIFGSLNSLKLEIEQMKRPLGTQQNPARTCKDLQLCHPDFPDGEYWVDPNQGCSRDSFKVYCNFTAGGSTCVFPDKKSEGARITSWPKENPGSWFSEFKRGKLLSYVDAEGNPVGVVQMTFLRLLSASAHQNVTYHCYQSVAWQDAATGSYDKALRFLGSNDEEMSYDNNPYIRALVDGCATKKGYQKTVLEIDTPKVEQVPIVDIMFNDFGEASQKFGFEVGPACFMG
- stoichiometry N: ~2
